Key:
[1] = molecular target: T1, SARS-CoV-2 nucleocapsid protein (N) (SARS-CoV-2, UniProt P0DTC9 1-419); assay: BLI
[2] = molecular target: T1, SARS-CoV-2 nucleocapsid protein (N); assay: BLI; remark: listed apart in the source

| Binder | koff [1] | Kd [2] |
| --- | --- | --- |
| CCL21 (ligand) SDGGAQDCCLKYSQRKIPAKVVRSYRKQEPSLGCSIPAILFLPRKRSQAELCADPKELWVQQLMQHLDKTPSPQKPAQGCRKDRGASKTGKKGKGSKGCKRTERSQTPKGP | 0.0014 s⁻¹ | 14 nM |
| CCL28 (ligand) SEAILPIASSCCTEVSHHISRRLLERVNMCRIQRADGDCDLAAVILHVKRRRICVSPHNHTVKQWMKVQAAKKNGKGNVCHRKKHHGKRNSNRAHQGKHETYGHKTPY | 0.00087 s⁻¹ | 22 nM |
| CXCL11 (ligand) FPMFKRGRCLCIGPGVKAVKVADIEKASIMYPSNNCDKIEVIITLKENKGQRCLNPKSKQARLIIKKVERKNF | 0.0033 s⁻¹ | 130 nM |
| CCL11 (ligand) not shown | 0.0045 s⁻¹ | 72 nM |
| CCL5 (ligand) SPYSSDTTPCCFAYIARPLPRAHIKEYFYTSGKCSNPAVVFVTRKNRQVCANPEKKWVREYINSLEMS | 0.00019 s⁻¹ | 10 nM |
| CXCL4 (ligand) EAEEDGDLQCLCVKTTSQVRPRHITSLEVIKAGPHCPTAQLIATLKNGRKICLDLQAPLYKKIIKKLLES | 0.00053 s⁻¹ | 170 nM |
| CCL26 (ligand) TRGSDISKTCCFQYSHKPLPWTWVRSYEFTSNSCSQRAVIFTTKRGKKVCTHPRKKWVQKYISLLKTPKQL | 0.00093 s⁻¹ | 26 nM |
| CXCL14 (ligand) SKCKCSRKGPKIRYSDVKKLEMKPKYPHCEEKMVIITTKSVSRYRGQEHCLHPKLQSTKRFIKWYNAWNEKRRVYEE | 0.0019 s⁻¹ | 45 nM |
| CXCL9 (ligand) TPVVRKGRCSCISTNQGTIHLQSLKDLKQFAPSPSCEKIEIIATLKNGVQTCLNPDSADVKELIKKWEKQVSQKKKQKNGKKHQKKKVLKVRKSQRSRQKKTT | 0.00085 s⁻¹ | 12 nM |
